Measured values reported in patent publication US20190241648A1 (STATEN BIOTECHNOLOGY B V, published 2019).
Ends that are not written are not given here.

Experiments:
Test in all cases: peptide microarray
[1] = molecular target: T1, ApoC3 peptide … W42I (human, not fully specified (bridges); also: cyclic constrained)
T1 peptide: ARGIVTDGFSSLK
Text: (§1) Amino acids G41 and G46 were highly conserved; substitution of G41 by E, N or Q caused a decrease of spot intensities by ˜70% or higher, whereas exchange of G46 by N was hardly tolerated and resulting in 90% reduced spot intensities. […] Amino acid positions V43, D45 and K51 were also well conserved with a clear preference for the wild type amino acids and a certain tolerance particularly for conservative exchanges by Y, F and I (V43), A, E and K (D45) as well as by R (K51). […] Replacement of V43 by Y, however, increased spot intensity by two fold. Amino acid positions W42 and 48S were poorly conserved or even variable; both positions were susceptible for only a number of amino acid exchanges, and exchange by F, S and T (W42) or by E (S48) even caused a two- to three-fold increase of spot intensity. Amino acid positions A39 and R40 were variable.
(§2) Pre: staining of one of the ApoC3 peptide microarrays was done with the secondary antibody goat anti-human IgG (Fe) DyLight680 (1:5000) and control antibody mouse monoclonal anti-HA (12CA5) DyLight800 (1:2000) to investigate background interactions of the secondary antibody with the antigen-derived peptides that could interfere with the main assays. Subsequent incubation of other ApoC3 peptide microarrays with antibody samples was followed by staining with secondary and control antibodies as well as read-out at scanning intensities of 7/7 (red/green). The additional HA peptides framing the peptide arrays were stained as internal quality control to confirm the assay quality and the peptide microarray integrity.

[2] = molecular target: T2, ApoC3 peptide … S49A (human, not fully specified (bridges); also: cyclic constrained)
T2 peptide: ARGWVTDGFSALK
Text: as §1, §2

[3] = molecular target: T3, ApoC3 peptide … G46C (human, also: cyclic constrained)
T3 peptide: ARGWVTDCFSSLK
Text: as §1, §2

[4] = molecular target: T4, ApoC3 peptide … L50Y (human, not fully specified (bridges); also: cyclic constrained)
T4 peptide: ARGWVTDGFSSYK
Text: as §1, §2

[5] = molecular target: T5, ApoC3 peptide … T44D (human, not fully specified (bridges); also: cyclic constrained)
T5 peptide: ARGWVDDGFSSLK
Text: as §1, §2

[6] = molecular target: T6, ApoC3 peptide … A39D (human, cyclic constrained)
T6 peptide: DRGWVTDGFSSLK
Text: as §1, §2

[7] = molecular target: T7, ApoC3 peptide … G41F (human, also: cyclic constrained)
T7 peptide: ARFWVTDGFSSLK
Text: as §1, §2

[8] = molecular target: T8, ApoC3 peptide … D45E (human, not fully specified (bridges); also: cyclic constrained)
T8 peptide: ARGWVTEGFSSLK
Text: as §1, §2

[9] = molecular target: T9, ApoC3 peptide … D45H (human, cyclic constrained)
T9 peptide: ARGWVTHGFSSLK
Text: as §1, §2

[10] = molecular target: T10, ApoC3 peptide … F47C (human, not fully specified (bridges); also: cyclic constrained)
T10 peptide: ARGWVTDGCSSLK
Text: as §1, §2

[11] = molecular target: T11, ApoC3 peptide … G41H (human, also: cyclic constrained)
T11 peptide: ARHWVTDGFSSLK
Text: as §1, §2

[12] = molecular target: T12, ApoC3 peptide … V43P (human, not fully specified (bridges); also: cyclic constrained)
T12 peptide: ARGWPTDGFSSLK
Text: as §1, §2

[13] = molecular target: T13, ApoC3 peptide … T44Q (human, not fully specified (bridges); also: cyclic constrained)
T13 peptide: ARGWVQDGFSSLK
Text: as §1, §2

[14] = molecular target: T14, ApoC3 peptide … S49Y (human, not fully specified (bridges); also: cyclic constrained)
T14 peptide: ARGWVTDGFSYLK
Text: as §1, §2

[15] = molecular target: T15, ApoC3 peptide … G46N (human, not fully specified (bridges); also: cyclic constrained)
T15 peptide: ARGWVTDNFSSLK
Text: as §1, §2

[16] = molecular target: T16, ApoC3 peptide … G46Y (human, thioether (positions not given here); also: cyclic constrained)
T16 peptide: ARGWVTDYFSSLK
Text: as §1, §2

[17] = molecular target: ApoC3 peptide … S49F (human, cyclic constrained)
Text: as §1, §2

[18] = molecular target: T17, ApoC3 peptide … F47P (human, not fully specified (bridges); also: cyclic constrained)
T17 peptide: ARGWVTDGPSSLK
Text: as §1, §2

[19] = molecular target: T18, ApoC3 peptide … G46P (human, not fully specified (bridges); also: cyclic constrained)
T18 peptide: ARGWVTDPFSSLK
Text: as §1, §2

[20] = molecular target: T19, ApoC3 peptide … L50S (human, not fully specified (bridges); also: cyclic constrained)
T19 peptide: ARGWVTDGFSSSK
Text: as §1, §2

[21] = molecular target: T20, ApoC3 peptide … W42R (human, not fully specified (bridges); also: cyclic constrained)
T20 peptide: ARGRVTDGFSSLK
Text: as §1, §2

[22] = molecular target: ApoC3 peptide … S48Q (human, cyclic constrained)
Text: as §1, §2

[23] = molecular target: T21, ApoC3 peptide … K51C (human, thioether (positions not given here); also: cyclic constrained)
T21 peptide: ARGWVTDGFSSLC
Text: as §1, §2

[24] = molecular target: T22, wild-type ApoC3 peptide ARGWVTDGFSSLK (SEQ ID NO: 45) (human, not fully specified (bridges); also: cyclic constrained, ring type and positions not given here)
T22 construct: 13 aa cyclic constrained peptide
T22 peptide: ARGWVTDGFSSLK
Text: as §1, §2

[25] = molecular target: T23, ApoC3 peptide … F47V (human, also: cyclic constrained)
T23 peptide: ARGWVTDGVSSLK
Text: as §1, §2

[26] = molecular target: T24, ApoC3 peptide … T44L (human, not fully specified (bridges); also: cyclic constrained)
T24 peptide: ARGWVLDGFSSLK
Text: as §1, §2

[27] = molecular target: T25, ApoC3 peptide … F47K (human, not fully specified (bridges); also: cyclic constrained)
T25 peptide: ARGWVTDGKSSLK
Text: as §1, §2

[28] = molecular target: T26, ApoC3 peptide … R40A (human, not fully specified (bridges); also: cyclic constrained)
T26 peptide: AAGWVTDGFSSLK
Text: as §1, §2

[29] = molecular target: T27, ApoC3 peptide … S49N (human, cyclic constrained)
T27 peptide: ARGWVTDGFSNLK
Text: as §1, §2

[30] = molecular target: T28, ApoC3 peptide … S49P (human, cyclic constrained)
T28 peptide: ARGWVTDGFSPLK
Text: as §1, §2

B1: anti-ApoC3 antibody 14C7 (antibody, V domains shown)
VH: QVQVQESGPGLVKPSQTLSLTCTVSGGSITTNSYYWSWIRQPPGKGLEWMGAIDYSGDTYYSPSLKSRTSISRDTSKNQFTLQLTSVTPEDTAVYYCVSRIPTGEYWGQGTQVTVSS
VL: QTVVTQEPSLSVSPGGTVTLTCGLNSGSVTSSNYPDWYQQTPGQAPRLLIYNTNSRHSGVPSRFSGSISGNKAALTITGAQPEDEADYYCALYMGSDSVVFGGGTHLTVL
notes: it was detected with goat anti-human IgG (Fc); also called mAb 14C7; llama antibody 14C7
In the case of B1, the “% of binding to wild-type peptide” value [1] is reported as 27.9%, the “% of binding to wild-type peptide” value [2] is reported as 2.43% and the “% of binding to wild-type peptide” value [3] is reported as 0%. For the same binder, the “% of binding to wild-type peptide” value [4] was 0.38%, the “% of binding to wild-type peptide” value [5] was 0% and the “% of binding to wild-type peptide” value [6] was 50.7%. For the same binder, the “% of binding to wild-type peptide” value [7] was 10.8%, the “% of binding to wild-type peptide” value [8] was 40% and the “% of binding to wild-type peptide” value [9] was 1.81%. The “% of binding to wild-type peptide” value [10] was 0%, the “% of binding to wild-type peptide” value [11] was 23.1% and the “% of binding to wild-type peptide” value [12] was 1.86%. The “% of binding to wild-type peptide” value [13] was 0%, the “% of binding to wild-type peptide” value [14] was 0% and the “% of binding to wild-type peptide” value [15] was 10.4%. For the same binder, the “% of binding to wild-type peptide” value [16] was 0%, the “% of binding to wild-type peptide” value [17] was 0.89% and the “% of binding to wild-type peptide” value [18] was 0%. The “% of binding to wild-type peptide” value [19] was 0%, the “% of binding to wild-type peptide” value [20] was 0% and the “% of binding to wild-type peptide” value [21] was 141%. For the same binder, the “% of binding to wild-type peptide” value [22] was 46.8%, the “% of binding to wild-type peptide” value [23] was 0% and the “% of binding to wild-type peptide” value [24] was 100%. For the same binder, the “% of binding to wild-type peptide” value [25] was 0.06%, the “% of binding to wild-type peptide” value [26] was 0.5% and the “% of binding to wild-type peptide” value [27] was 0.12%. For the same binder, the “% of binding to wild-type peptide” value [28] was 50.1%, the “% of binding to wild-type peptide” value [29] was 0% and the “% of binding to wild-type peptide” value [30] was 0%.
